Assay results from US20180355009A1.
Where “and” joins values, the source holds several entries; their conditions need not be identical. Identical values can stand only once.

Molecular target: human IL-22 receptor complex IL22R1 and IL10R2, overexpressed on HEK 293 cells (human) (UniProt Q8N6P7)
Test: cell-based or functional assay

Chain of human IL-22 receptor complex IL22R1 and IL10R2, overexpressed on HEK 293 cells (human) (Q8N6P7 16-574, chain 1 of 2): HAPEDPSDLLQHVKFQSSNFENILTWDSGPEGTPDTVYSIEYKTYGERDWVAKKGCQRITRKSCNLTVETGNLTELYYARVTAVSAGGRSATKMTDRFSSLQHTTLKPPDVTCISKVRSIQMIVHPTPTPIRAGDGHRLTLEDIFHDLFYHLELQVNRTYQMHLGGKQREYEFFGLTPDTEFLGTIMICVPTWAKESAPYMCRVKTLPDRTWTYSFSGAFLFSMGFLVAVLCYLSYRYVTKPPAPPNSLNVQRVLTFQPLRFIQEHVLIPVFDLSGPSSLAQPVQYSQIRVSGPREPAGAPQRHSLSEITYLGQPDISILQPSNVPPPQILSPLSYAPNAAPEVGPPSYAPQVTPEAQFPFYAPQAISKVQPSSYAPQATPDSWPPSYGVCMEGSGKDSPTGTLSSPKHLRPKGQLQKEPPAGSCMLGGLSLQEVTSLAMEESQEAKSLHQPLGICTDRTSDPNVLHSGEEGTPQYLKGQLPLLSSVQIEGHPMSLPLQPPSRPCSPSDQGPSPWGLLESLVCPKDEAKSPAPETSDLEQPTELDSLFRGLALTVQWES
Chain of human IL-22 receptor complex IL22R1 and IL10R2, overexpressed on HEK 293 cells (human) (Q08334 20-325, chain 2 of 2, further chain): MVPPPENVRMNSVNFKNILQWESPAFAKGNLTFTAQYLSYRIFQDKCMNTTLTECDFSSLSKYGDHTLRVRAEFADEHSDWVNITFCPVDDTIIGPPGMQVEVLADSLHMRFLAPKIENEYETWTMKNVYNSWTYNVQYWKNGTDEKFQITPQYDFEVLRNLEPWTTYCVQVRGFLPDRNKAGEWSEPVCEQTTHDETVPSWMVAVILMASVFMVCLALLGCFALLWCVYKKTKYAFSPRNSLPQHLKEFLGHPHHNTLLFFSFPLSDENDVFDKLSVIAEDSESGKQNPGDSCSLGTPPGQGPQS

## native IL-22 protein produced in CHO cells (from UniProt Q9GZX6 34-179) (ligand)
  potency in the STAT3 luciferase reporter assay, against the IL-22 Fc fusion proteins: 2 fold and 3 fold
